Experimental data: paper PMC3691600, “Conversion of fatty aldehydes into alk (a/e)nes by in vitro reconstituted cyanobacterial aldehyde-deformylating oxygenase with the cognate electron transfer system” (Biotechnology for Biofuels, 2013)

Molecular target: Aldehyde-deformylating oxygenase (Synpcc7942_1593) from Synechococcus elongatus PCC7942 (Synechococcus elongatus PCC7942) (UniProt Q54764)
Sequence (Q54764 whole entry): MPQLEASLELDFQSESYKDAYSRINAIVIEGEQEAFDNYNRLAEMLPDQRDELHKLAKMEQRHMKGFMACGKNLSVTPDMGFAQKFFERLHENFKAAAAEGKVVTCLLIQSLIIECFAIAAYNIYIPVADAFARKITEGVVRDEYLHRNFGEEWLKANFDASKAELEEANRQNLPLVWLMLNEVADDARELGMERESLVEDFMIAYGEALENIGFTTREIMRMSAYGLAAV

Sequence of Spinach ferredoxin (P00221 51-147): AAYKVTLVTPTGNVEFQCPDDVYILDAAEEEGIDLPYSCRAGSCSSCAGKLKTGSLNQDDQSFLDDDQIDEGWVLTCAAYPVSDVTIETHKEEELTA

Spinach ferredoxin (from UniProt P00221 51-147) (natural protein)
Yield of n-pentadecane by ADO 1593 with Fd (spinach) + FNR (PCC7942) + NADPH: 13.9 µM | Yield of n-pentadecane by ADO 1593 with Fd (spinach) + FNR (spinach) + NADPH: 15.7 µM
